Results as given in publication PMC5051544.

Target: T1, Bacteriorhodopsin, P02945
T1 chain: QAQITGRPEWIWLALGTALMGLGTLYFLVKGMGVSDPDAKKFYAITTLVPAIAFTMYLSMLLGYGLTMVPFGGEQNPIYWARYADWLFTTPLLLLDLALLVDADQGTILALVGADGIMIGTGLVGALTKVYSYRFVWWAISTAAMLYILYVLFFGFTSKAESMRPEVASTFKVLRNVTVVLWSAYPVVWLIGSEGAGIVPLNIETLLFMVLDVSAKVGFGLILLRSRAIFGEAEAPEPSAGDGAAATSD
Assay: SEC
Conditions: remark: other sources report otherwise

stoichiometry N: 3 per nanodisc
B1: Bacteriorhodopsin, P02945 14-262 (natural protein)
chain: QAQITGRPEWIWLALGTALMGLGTLYFLVKGMGVSDPDAKKFYAITTLVPAIAFTMYLSMLLGYGLTMVPFGGEQNPIYWARYADWLFTTPLLLLDLALLVDADQGTILALVGADGIMIGTGLVGALTKVYSYRFVWWAISTAAMLYILYVLFFGFTSKAESMRPEVASTFKVLRNVTVVLWSAYPVVWLIGSEGAGIVPLNIETLLFMVLDVSAKVGFGLILLRSRAIFGEAEAPEPSAGDGAAATSD
